The target of test [1] is T1, TMEM55B (residues 80-160) (Homo sapiens, UniProt Q86T03).
T1 construct: injected into a cell containing TMEM55B (residues 80-160); hexa-Histidine (N); made in house; host or cells: E. coli BL21(DE3)
As to the kind of experiment: Isothermal titration calorimetry of TBM peptides / OCRL PH domain with TMEM55B. To be noted: ITC; titration shown in the figure panel (Figure 1G / Figure 6B); value printed in the picture, ±% = fitting error. Format: binding. As for the experimental part: Calorimetry experiments were performed using an ITC200 (Particular Sciences) as described in dx.doi.org/10.17504/protocols.io.j8nlkr7x6v5r/v1. Experiments were performed 3 or more times for each interacting pair. The TBM peptides were dialyzed together with TMEM55B80-160 (20 mM) Tris-HCl, 150mM NaCl, 5mM and 1mM DTT, pH 7.5). Protein concentrations were calculated based on their absorbance at 280nm using a ND-1000 NanoDrop spectrophotometer (Thermo Scientific), peptide concentration was determined by adding buffer to a known amount of lyophilized peptide factoring in their purity. The proteins were centrifuged at 13,100 x g for 10 minutes prior to the determination of protein concentration and ITC analyses. […]. We used Origin 7.0 with the ITC plugin for data processing, and assumed a single binding mode for data fitting.
(In ITC the heat of successive injections is recorded.)

The subject of the next test is WT TMEM55B region 80-166. As to the kind of experiment: In vitro pulldown of untagged TMEM55B with His-tagged bait peptides. Format: binding. To be noted: 10 μM bait, 10 μM prey, Ni2+-agarose, 20 mM Tris pH 8.0, 300 mM NaCl, 20 mM imidazole, 15 minutes, SDS-PAGE, Coomassie, qualitative. The text has this: Figure 5: In vitro pulldowns of TMEM55B with TBM peptides. (A) Domain organization of TMEM55B interactors depicting the sequence context of the TBM. Regions that are α-helical have been drawn as cylinders; α/βfolds are shown as rectangles; and unstructured segments are zigzag lines. (B) Cartoon depiction of the in vitro pulldown strategy using His-tagged peptides. […] As a control, the R151E variant of TMEM55B was used, which abolishes the interactions with RILPL1 (bottom panel). […] Protein/peptide concentrations were 10μM (see Methods) and visualization was enabled by Coomassie Brilliant Blue G250.
Given that the TBMs reside in flexible regions of the adaptor proteins (Figure 5A), peptides should be able to mimic their interactions with TMEM55B. Peptides corresponding to the potential TBMs were synthesized with an N-terminal hexahistidine tag to enable in vitro pulldowns of TMEM55B (80-166; Figure 5B). Slightly extended peptides beyond the minimal TBMs were generated to preclude any structural or conformational restrictions on the interaction with TMEM55B. The peptide TBM from RILPL1 was used as a positive control, and the mutant R151E™ of TMEM55B provided a negative control. Peptides run on conventional SDS-PAGE gels are generally not visible in this assay. […]

T1 sequence (Q86T03 73-153): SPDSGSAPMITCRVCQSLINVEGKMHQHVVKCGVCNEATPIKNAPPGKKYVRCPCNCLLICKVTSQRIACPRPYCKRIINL

B1: OCRL-PH domain: recombinant His-tagged PH domain, residues 1-129 of OCRL, ~16kDa (protein, UniProt Q01968 1-129, looked up, fragment)
chain: MEPPLPVGAQPLATVEGMEMKGPLREPCALTLAQRNGQYELIIQLHEKEQHVQDIIPINSHFRCVQEAEETLLIDIASNSGCKIRVQGDWIRERRFEIPDEEHCLKFLSAVLAAQKAQSQLLVPEQKDS
modifications: PH domain His tag
notes: recombinant His-tagged PH domain, residues 1-129 of OCRL, ~16kDa
Consider B1, for which the Kd – broadly, the free concentration of one partner at which half of the binding sites on the other are occupied at equilibrium, for simple one-to-one binding – in test [1] was found to be 900 nM. The “pulldown of untagged WT TMEM55B (80-166) by His-tagged bait” value in the test on WT TMEM55B region 80-166 was “interacts robustly”; with WT TMEM55B region 80-166 (listed as PH domain of OCRL1) it was “successfully pulldown”.

Source of the values: article doi:10.1101/2025.08.19.670962, “Structural basis for binding of RILPL1 to TMEM55B reveals a lysosomal platform for adaptor assembly through a conserved TBM motif” (bioRxiv, 2025).
